Earlier results as cited in publication PMC5257200.

Target: His19 (UniProt position 19, ILSALHFMAWT)
Details: Membrane-bound peptide

Q: With “Influenza B virus M2 protein peptide BM2(3–33) (Influenza B virus (strain not stated for this construct))” as the substance, how does the pKa read?
A: Its pKa is roughly 6.5.
